This assay addresses peptide derived from subunit 5 of the pertussis toxin (PTX) (…) (Bordetella pertussis).

Consider “Bordetella pertussis DsbA (BperDsbA), mature, oxidized (from UniProt Q7W0K2 28-209) (enzyme)”, for which the fraction of reduced BperDsbA (AMS alkylation, SDS-PAGE, densitometry) after 5, 10 and 30 s of 50 uM oxidized BperDsbA with 50 uM PTX peptide came out at 90%.

These data come from PMC12724015.
